target: T1, FcγRIa (human, UniProt P12314 16-292); assay: SPR (Biacore), antibody captured on antigen-peptide chip, FcγRIa as analyte; binding activity relative to control GpH7-B3/GpL16-k0 (HoCon Ab) x100
T1 construct: extracellular domain; Soluble extracellular domain with C-terminal His tag, expressed in FreeStyle293 cells; analyte in Biacore; also called FcgRI; CD64; not shown: His tag attached to the C terminus
Experimental: Analysis of interaction between objective antibody and the FcγR was carried out using Biacore T100 (GE Healthcare). HBS-EP+ (GE Healthcare) was used as the running buffer, and the measurement temperature was set to 25° C. Chips produced by immobilizing the antigen peptide by the amine coupling method to a Series S Sencor Chip CM5 (GE Healthcare), or alternatively, chips produced by allowing preliminarily biotinylated antigen peptides to interact with and immobilize onto a Series S Sensor Chip SA (certified) (GE Healthcare) were used. Antibodies of interest were captured onto an antigen peptide-immobilized chip, and allowed to interact to each FcγR diluted with running buffer. To regenerate and repeatedly use the chip, the antibodies captured on the chip were washed off by reacting 10 mM glycine-HCl, pH 1.5.

T1 sequence (P12314 16-292): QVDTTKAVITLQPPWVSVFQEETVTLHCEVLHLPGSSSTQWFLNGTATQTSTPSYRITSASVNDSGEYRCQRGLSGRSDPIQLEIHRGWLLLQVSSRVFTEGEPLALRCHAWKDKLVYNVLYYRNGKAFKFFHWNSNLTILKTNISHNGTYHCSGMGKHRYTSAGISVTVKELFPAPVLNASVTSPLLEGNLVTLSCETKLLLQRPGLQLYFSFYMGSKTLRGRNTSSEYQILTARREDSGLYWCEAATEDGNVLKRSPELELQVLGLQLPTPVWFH

Row | Binder | Ho/Con_1a
1 | GpH7-B3 variant Y300_01G/GpL16-k0 (homodimerized antibody, Ho Ab) (antibody, human IgG1, kappa, Anti-glypican-3 IgG1 (G1d with K439E); same alteration in both H chains) heavy: not shown light: DIVMTQSPLSLPVTPGEPASISCQASESLVHSNRNTYLHWYLQKPGQSPQLLIYKVSNRFSGVPDRFSGSGSGTDFTLKISRVEAEDVGVYYCSQNTHVPPTFGQGTKVEIERTVAAPSVFIFPPSDEQLKSGTASVVCLLNNFYPREAKVQWKVDNALQSGNSQESVTEQDSKDSTYSLSSTLTLSKADYEKHKVYACEVTHQGLSSPVTKSFNRGEC | 109 % of control (=100)
2 | GpH7-B3 variant T335_20W/GpL16-k0 (homodimerized antibody, Ho Ab) (antibody, human IgG1, kappa, Anti-glypican-3 IgG1 (G1d with K439E); same alteration in both H chains) heavy: not shown light: DIVMTQSPLSLPVTPGEPASISCQASESLVHSNRNTYLHWYLQKPGQSPQLLIYKVSNRFSGVPDRFSGSGSGTDFTLKISRVEAEDVGVYYCSQNTHVPPTFGQGTKVEIERTVAAPSVFIFPPSDEQLKSGTASVVCLLNNFYPREAKVQWKVDNALQSGNSQESVTEQDSKDSTYSLSSTLTLSKADYEKHKVYACEVTHQGLSSPVTKSFNRGEC | 104 % of control (=100)
3 | GpH7-B3 variant Y296_06M/GpL16-k0 (homodimerized antibody, Ho Ab) (antibody, human IgG1, kappa, Anti-glypican-3 IgG1 (G1d with K439E); same alteration in both H chains) heavy: not shown light: DIVMTQSPLSLPVTPGEPASISCQASESLVHSNRNTYLHWYLQKPGQSPQLLIYKVSNRFSGVPDRFSGSGSGTDFTLKISRVEAEDVGVYYCSQNTHVPPTFGQGTKVEIERTVAAPSVFIFPPSDEQLKSGTASVVCLLNNFYPREAKVQWKVDNALQSGNSQESVTEQDSKDSTYSLSSTLTLSKADYEKHKVYACEVTHQGLSSPVTKSFNRGEC | 104 % of control (=100)
4 | GpH7-B3 variant T335_19Q/GpL16-k0 (homodimerized antibody, Ho Ab) (antibody, human IgG1, kappa, Anti-glypican-3 IgG1 (G1d with K439E); same alteration in both H chains) heavy: not shown light: DIVMTQSPLSLPVTPGEPASISCQASESLVHSNRNTYLHWYLQKPGQSPQLLIYKVSNRFSGVPDRFSGSGSGTDFTLKISRVEAEDVGVYYCSQNTHVPPTFGQGTKVEIERTVAAPSVFIFPPSDEQLKSGTASVVCLLNNFYPREAKVQWKVDNALQSGNSQESVTEQDSKDSTYSLSSTLTLSKADYEKHKVYACEVTHQGLSSPVTKSFNRGEC | 105 % of control (=100)
5 | GpH7-B3 variant Y296_12R/GpL16-k0 (homodimerized antibody, Ho Ab) (antibody, human IgG1, kappa, Anti-glypican-3 IgG1 (G1d with K439E); same alteration in both H chains) heavy: not shown light: DIVMTQSPLSLPVTPGEPASISCQASESLVHSNRNTYLHWYLQKPGQSPQLLIYKVSNRFSGVPDRFSGSGSGTDFTLKISRVEAEDVGVYYCSQNTHVPPTFGQGTKVEIERTVAAPSVFIFPPSDEQLKSGTASVVCLLNNFYPREAKVQWKVDNALQSGNSQESVTEQDSKDSTYSLSSTLTLSKADYEKHKVYACEVTHQGLSSPVTKSFNRGEC | 103 % of control (=100)

Continued, values first:

Row | Ho/Con_1a | Binder
6 | 102 % of control (=100) | GpH7-B3 variant T335_18N/GpL16-k0 (homodimerized antibody, Ho Ab) (antibody, human IgG1, kappa, Anti-glypican-3 IgG1 (G1d with K439E); same alteration in both H chains) heavy: not shown light: DIVMTQSPLSLPVTPGEPASISCQASESLVHSNRNTYLHWYLQKPGQSPQLLIYKVSNRFSGVPDRFSGSGSGTDFTLKISRVEAEDVGVYYCSQNTHVPPTFGQGTKVEIERTVAAPSVFIFPPSDEQLKSGTASVVCLLNNFYPREAKVQWKVDNALQSGNSQESVTEQDSKDSTYSLSSTLTLSKADYEKHKVYACEVTHQGLSSPVTKSFNRGEC
7 | 102 % of control (=100) | GpH7-B3 variant Y296_11K/GpL16-k0 (homodimerized antibody, Ho Ab) (antibody, human IgG1, kappa, Anti-glypican-3 IgG1 (G1d with K439E); same alteration in both H chains) heavy: not shown light: DIVMTQSPLSLPVTPGEPASISCQASESLVHSNRNTYLHWYLQKPGQSPQLLIYKVSNRFSGVPDRFSGSGSGTDFTLKISRVEAEDVGVYYCSQNTHVPPTFGQGTKVEIERTVAAPSVFIFPPSDEQLKSGTASVVCLLNNFYPREAKVQWKVDNALQSGNSQESVTEQDSKDSTYSLSSTLTLSKADYEKHKVYACEVTHQGLSSPVTKSFNRGEC
8 | 106 % of control (=100) | GpH7-B3 variant Y296_10E/GpL16-k0 (homodimerized antibody, Ho Ab) (antibody, human IgG1, kappa, Anti-glypican-3 IgG1 (G1d with K439E); same alteration in both H chains) heavy: not shown light: DIVMTQSPLSLPVTPGEPASISCQASESLVHSNRNTYLHWYLQKPGQSPQLLIYKVSNRFSGVPDRFSGSGSGTDFTLKISRVEAEDVGVYYCSQNTHVPPTFGQGTKVEIERTVAAPSVFIFPPSDEQLKSGTASVVCLLNNFYPREAKVQWKVDNALQSGNSQESVTEQDSKDSTYSLSSTLTLSKADYEKHKVYACEVTHQGLSSPVTKSFNRGEC
9 | 104 % of control (=100) | GpH7-B3 variant T335_16H/GpL16-k0 (homodimerized antibody, Ho Ab) (antibody, human IgG1, kappa, Anti-glypican-3 IgG1 (G1d with K439E); same alteration in both H chains) heavy: not shown light: DIVMTQSPLSLPVTPGEPASISCQASESLVHSNRNTYLHWYLQKPGQSPQLLIYKVSNRFSGVPDRFSGSGSGTDFTLKISRVEAEDVGVYYCSQNTHVPPTFGQGTKVEIERTVAAPSVFIFPPSDEQLKSGTASVVCLLNNFYPREAKVQWKVDNALQSGNSQESVTEQDSKDSTYSLSSTLTLSKADYEKHKVYACEVTHQGLSSPVTKSFNRGEC

Reference: patent publication US20150344570A1 (published 2015)
